Each block holds one substance with its values, some of them ahead of it.
Tests used:
[1] = target: Flag-calcineurin (UniProt Q08209)
[2] = target: HA-tagged wild-type calcineurin A (UniProt Q08209); experiment: co-IP; HEK293 cells co-transfected with HA-calcineurin and Myc-RCAN1, without or with T7-NEDD8, NEDD8-ΔGG, or after NEDD8 or control siRNA (60 nM); lysis in 1% NP40 buffer; IP with HA antibody, blot with Myc antibody
[3] = target: HA-tagged RCAN1-3KR mutant (human); experiment: co-IP; HEK293 cells co-transfected with Flag-calcineurin and HA-tagged wild-type RCAN1 or RCAN1-3KR; IP with HA antibody, blot with Flag antibody

Myc-RCAN1, sequence (P53805 whole entry): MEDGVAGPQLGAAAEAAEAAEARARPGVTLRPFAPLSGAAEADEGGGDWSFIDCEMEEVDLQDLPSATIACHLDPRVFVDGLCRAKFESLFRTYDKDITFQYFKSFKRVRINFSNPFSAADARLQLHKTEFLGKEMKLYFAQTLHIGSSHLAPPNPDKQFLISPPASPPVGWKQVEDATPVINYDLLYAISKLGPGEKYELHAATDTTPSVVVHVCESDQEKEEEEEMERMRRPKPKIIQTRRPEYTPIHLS

NFAT-luciferase reporter activity in HEK293 cells treated with ionomycin, inhibition against reporter alone [1]: > 60%
Substance: HA-tagged human wild-type RCAN1 (RCAN1-1S) (natural protein)

increase of binding with co-expressed wild-type NEDD8, against no NEDD8 [2]: 30%
Substance: Myc-RCAN1 (natural protein)

reduction of binding against wild-type RCAN1 [3]: 40%
Substance: Flag-calcineurin (from UniProt Q08209 1-521) (enzyme)

From paper PMC3485183
